According to patent US20240132578A1:

Key:
Assay in all cases: cell-based or functional assay
[1] = target: HIV-1 Env of isolate MGRM-C-028 (subtype C), on pseudovirus (HIV-1)
[2] = target: HIV-1 Env of pseudovirus isolate MGRM-Chronic-B-002 (clade B) (HIV-1)
[3] = target: HIV-1 92BR020 Env (HIV-1)
[4] = target: HIV-1 Env of isolate MG RM-A-012 (pseudovirus) (HIV-1)
[5] = target: HIV-1 Env of isolate MGRM-C-019 (subtype C), on pseudovirus (HIV-1)
[6] = target: HIV-1 Env of isolate CMU02 (pseudovirus) (HIV-1)
[7] = target: HIV-1 Env of pseudovirus isolate 6535.3 (clade B) (HIV-1)
[8] = target: HIV-1 Env of pseudovirus isolate MGRM-Chronic-B-003 (clade B) (HIV-1)
[9] = target: HIV-1 Env of isolate CMU02 (subtype AE) (HIV-1)
[10] = target: HIV-1 Env of isolate MGRM-A-004 (pseudovirus) (HIV-1)
[11] = target: HIV-1 MGRM-D-018 envelope protein (Env) on pseudovirus (HIV-1)
[12] = target: HIV-1 Env of isolate MGRM-F1-017 (HIV-1)
[13] = target: HIV-1 Env of isolate MGRM-D-018 (pseudovirus) (HIV-1)
[14] = target: HIV-1 Env of isolate MGRM-F1-008 (HIV-1)
[15] = target: HIV-1 Env of isolate MGRM-AE-005 (subtype AE) (HIV-1)
[16] = target: HIV-1 Env of pseudovirus isolate MGRM-C-008 (clade C) (HIV-1)
[17] = target: HIV-1 92UG005 envelope protein (Env) on pseudovirus (HIV-1)
[18] = target: HIV-1 Env of isolate 98CN009 (pseudovirus) (HIV-1)
[19] = target: HIV-1 Env of isolate MGRM-F1-010 (HIV-1)
[20] = target: HIV-1 Env of pseudovirus MGRM-F1-022 (HIV-1)
[21] = target: HIV-1 envelope glycoprotein (Env) of isolate MGRM-AE-008 (HIV-1)
[22] = target: HIV-1 Env of pseudovirus MGRM-F1-016 (HIV-1)
[23] = target: HIV-1 Env of pseudovirus MGRM-F1-015 (HIV-1)
[24] = target: HIV-1 envelope glycoprotein (Env) of isolate 94UG103, subtype A (HIV-1)
[25] = target: HIV-1 envelope glycoprotein (Env) of isolate MG RM-A-011, subtype A (HIV-1)
[26] = target: HIV-1 envelope glycoprotein (Env) of isolate APV_6, on pseudovirus (HIV-1)
[27] = target: HIV-1 envelope glycoprotein (Env) of isolate PVO.4, on pseudovirus (HIV-1)
[28] = target: HIV-1 envelope glycoprotein (Env) of isolate MG RM-A-009, subtype A (HIV-1)
[29] = target: HIV-1 envelope glycoprotein (Env) of isolate 92WR020, subtype A (HIV-1)
[30] = target: HIV-1 JR-CSF Env N301A (HIV-1 (isolate JR-CSF, clade B)) (UniProt P20871)
[31] = target: HIV-1 Env of pseudovirus MGRM-G-011 (HIV-1)
[32] = target: HIV-1 Env of isolate MGRM-D-026 (clade D pseudovirus) (HIV-1)
[33] = target: HIV-1 92RW020 envelope (Env) on pseudovirus (HIV-1)
[34] = target: HIV-1 Env of isolate 92UG046 (clade D pseudovirus) (HIV-1)
[35] = target: HIV-1 Env of isolate 93TH305, clade B (HIV-1)
[36] = target: HIV-1 Env of pseudovirus MGRM-G-014 (HIV-1)
[37] = target: HIV-1 Env of pseudovirus MGRM-G-016 (HIV-1)
[38] = target: HIV-1 MGRM-AE-001 Env (pseudovirus) (HIV-1)

Chain of 4993_K13 (PGT-141) (antibody) (VH): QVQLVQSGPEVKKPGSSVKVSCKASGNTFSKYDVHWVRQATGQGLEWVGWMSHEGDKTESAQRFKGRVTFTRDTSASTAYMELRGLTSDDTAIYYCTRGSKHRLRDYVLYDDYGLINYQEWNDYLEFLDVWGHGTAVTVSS
Chain of 4993_K13 (PGT-141) (antibody) (VL): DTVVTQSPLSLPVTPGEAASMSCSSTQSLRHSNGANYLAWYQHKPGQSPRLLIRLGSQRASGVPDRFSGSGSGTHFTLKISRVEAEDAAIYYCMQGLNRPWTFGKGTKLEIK
Chain of PGT-142 (4995_E20) (antibody) (VH): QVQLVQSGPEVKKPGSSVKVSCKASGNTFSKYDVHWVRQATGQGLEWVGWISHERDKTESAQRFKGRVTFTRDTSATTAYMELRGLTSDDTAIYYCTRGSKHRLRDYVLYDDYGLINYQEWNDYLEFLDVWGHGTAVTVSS
Chain of PGT-143 (4980_N08) (antibody) (VH): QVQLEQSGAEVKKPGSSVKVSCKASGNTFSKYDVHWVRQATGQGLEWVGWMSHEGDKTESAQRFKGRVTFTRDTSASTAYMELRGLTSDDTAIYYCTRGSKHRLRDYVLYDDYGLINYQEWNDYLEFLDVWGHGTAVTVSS
Chain of PGT-143 (4980_N08) (antibody) (VL): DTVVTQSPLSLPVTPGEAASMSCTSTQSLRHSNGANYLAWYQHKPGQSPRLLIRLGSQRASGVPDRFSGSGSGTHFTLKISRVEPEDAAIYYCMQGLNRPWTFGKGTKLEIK
Chain of 4970_K22 (PGT-144) (antibody) (VH): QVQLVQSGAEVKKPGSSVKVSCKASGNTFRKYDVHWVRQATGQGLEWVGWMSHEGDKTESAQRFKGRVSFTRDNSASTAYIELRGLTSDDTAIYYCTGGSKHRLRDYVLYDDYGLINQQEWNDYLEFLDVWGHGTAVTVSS
Chain of 4970_K22 (PGT-144) (antibody) (VL): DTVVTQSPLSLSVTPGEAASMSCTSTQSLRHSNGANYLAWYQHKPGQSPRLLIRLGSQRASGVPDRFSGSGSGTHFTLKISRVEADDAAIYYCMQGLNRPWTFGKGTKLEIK

4970_K22 (PGT-144) (antibody)
IC50, single-round pseudovirus neutralization [1]: > 50 µg/mL
IC50, pseudovirus neutralization [2]: > 50 µg/mL
IC50, pseudovirus neutralization [3]: > 10 µg/mL
IC50 (µg/mL), single-round pseudovirus neutralization [4]: > 50 µg/mL
IC50, single-round pseudovirus neutralization [5]: 0.513 µg/mL
IC50 (µg/mL), single-round pseudovirus neutralization [6]: > 50 µg/mL
IC50, pseudovirus neutralization [7]: > 50 µg/mL
IC50, pseudovirus neutralization [8]: 7.41 µg/mL

5329_C19 (PGT-136) (antibody)
IC50, pseudovirus neutralization [9]: > 50 µg/mL
IC50 (µg/mL), pseudovirus neutralization [10]: > 50 µg/mL
IC50 (ug/mL), pseudovirus neutralization [11]: > 10 µg/mL
IC50, pseudovirus neutralization [3]: > 10 µg/mL
IC50 (µg/mL), pseudovirus neutralization [12]: > 50 µg/mL
IC50 (µg/mL), pseudovirus neutralization [13]: > 50 µg/mL
IC50 (µg/mL), pseudovirus neutralization [14]: > 50 µg/mL
IC50, pseudovirus neutralization [15]: > 50 µg/mL
IC50, pseudovirus neutralization [16]: > 50 µg/mL
IC50 (ug/mL), pseudovirus neutralization [17]: > 10 µg/mL
IC50 (µg/mL), pseudovirus neutralization [18]: 0.428 µg/mL
IC50 (µg/mL), pseudovirus neutralization [19]: > 50 µg/mL

5343_B08 (PGT-135) (antibody)
IC50, pseudovirus neutralization [9]: > 50 µg/mL
IC50 (µg/mL), pseudovirus neutralization [10]: > 50 µg/mL
IC50 (ug/mL), pseudovirus neutralization [11]: 0.0433 µg/mL
IC50, pseudovirus neutralization [3]: 0.104 µg/mL
IC50 (µg/mL), pseudovirus neutralization [12]: 7.79 µg/mL
IC50 (µg/mL), pseudovirus neutralization [13]: 0.039 µg/mL
IC50 (µg/mL), pseudovirus neutralization [14]: > 50 µg/mL
IC50, pseudovirus neutralization [15]: > 50 µg/mL
IC50, pseudovirus neutralization [16]: > 50 µg/mL
IC50 (ug/mL), pseudovirus neutralization [17]: > 10 µg/mL
IC50 (µg/mL), pseudovirus neutralization [18]: 0.071 µg/mL
IC50 (µg/mL), pseudovirus neutralization [19]: > 50 µg/mL

PGT-143 (4980_N08) (antibody)
IC50, pseudovirus neutralization [20]: 0.082 µg/mL
IC50 [21]: 0.135 µg/mL
IC50, pseudovirus neutralization [22]: > 50 µg/mL
IC50, pseudovirus neutralization [23]: > 50 µg/mL

4858_P08 (PGT-123) (antibody)
IC50, pseudovirus neutralization [24]: 0.678 µg/mL
IC50, pseudovirus neutralization [25]: > 50 µg/mL
IC50 (ug/mL), pseudovirus neutralization [11]: 0.0047 µg/mL
IC50, pseudovirus neutralization [3]: 0.013 µg/mL
IC50, pseudovirus neutralization [26]: 0.023 µg/mL
IC50, pseudovirus neutralization [27]: 0.105 µg/mL
IC50, pseudovirus neutralization [28]: 0.004 µg/mL
IC50, pseudovirus neutralization [29]: 0.002 µg/mL
IC50 (ug/mL), pseudovirus neutralization [17]: 2.49 µg/mL

PGV04 (antibody)
IC50 (µg/mL), pseudovirus neutralization [12]: 2.38 µg/mL
IC50 (µg/mL), pseudovirus neutralization [6]: 1.24 µg/mL

5145_B14 (PGT-127) (antibody)
IC50, pseudovirus neutralization [24]: 0.017 µg/mL
IC50, pseudovirus neutralization [25]: > 50 µg/mL
IC50, pseudovirus neutralization [26]: 0.04 µg/mL
IC50, pseudovirus neutralization [27]: 0.164 µg/mL
IC50, pseudovirus neutralization [28]: 0.013 µg/mL
IC50, pseudovirus neutralization [29]: 0.01 µg/mL
Fold IC50 increase relative to wild-type [30]: > 250 fold

4980_N08 (PGT-143) (antibody)
IC50, single-round pseudovirus neutralization [1]: 12.4 µg/mL
IC50, pseudovirus neutralization [2]: > 50 µg/mL
IC50, pseudovirus neutralization [3]: > 10 µg/mL
IC50 (µg/mL), single-round pseudovirus neutralization [4]: > 50 µg/mL
IC50, single-round pseudovirus neutralization [5]: 0.004 µg/mL
IC50 (µg/mL), single-round pseudovirus neutralization [6]: > 50 µg/mL
IC50, pseudovirus neutralization [7]: > 50 µg/mL
IC50, pseudovirus neutralization [8]: 0.854 µg/mL

1496_C09 (PG9) (TCN-109) (antibody)
IC50 (µg/ml), pseudovirus neutralization [31]: 0.19 µg/mL
IC50, pseudovirus neutralization [32]: 17.5 µg/mL
neutralization IC50 [33]: 0.0637 µg/mL
IC50 (ug/mL), pseudovirus neutralization [11]: 0.0444 µg/mL
IC50, pseudovirus neutralization [34]: 0.64 µg/mL
IC50 (µg/ml), pseudovirus neutralization [35]: 2.08 µg/mL
IC50 (µg/ml), pseudovirus neutralization [36]: 6.32 µg/mL
IC50 (µg/ml), pseudovirus neutralization [37]: 0.4 µg/mL
IC50 (µg/ml), pseudovirus neutralization [38]: 2.97 µg/mL

PGT-142 (4995_E20) (antibody)
IC50, pseudovirus neutralization [20]: 0.04 µg/mL
IC50 [21]: 0.08 µg/mL
IC50, pseudovirus neutralization [22]: > 50 µg/mL
IC50, pseudovirus neutralization [23]: > 50 µg/mL

4993_K13 (PGT-141) (antibody)
IC50, single-round pseudovirus neutralization [1]: 13.8 µg/mL
IC50, pseudovirus neutralization [2]: > 50 µg/mL
IC50, pseudovirus neutralization [3]: > 10 µg/mL
IC50 (µg/mL), single-round pseudovirus neutralization [4]: > 50 µg/mL
IC50, single-round pseudovirus neutralization [5]: 0.008 µg/mL
IC50 (µg/mL), single-round pseudovirus neutralization [6]: > 50 µg/mL
IC50, pseudovirus neutralization [7]: > 50 µg/mL
IC50, pseudovirus neutralization [8]: 0.4 µg/mL
